From the supplement of paper PMC9170038 come the findings set out here.

The test system of data set [1] is MS2 coat protein. Put plainly: apparent KD of MS2 coat protein; higher = weaker reporter binding. Particulars: Eterna round: R101. How it is done: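 RNA-MaP: designed FMN/MS2 RNA switches (84 nt design region) are transcribed on-chip within common flanks and titrated with SNAP-549-labelled MS2 coat protein (about 1-3000 nM) in 100 mM Tris pH 7.5, 80 mM KCl, 4 mM MgCl2, without or with 200 uM FMN. Median apparent KD per design; activation ratio = KD,OFF / KD,ON.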

In data set [2] the test system is MS2 coat protein. Put plainly: apparent KD of MS2 coat protein, switch ON state; designed switch direction (-1 OFF switch, 1 ON switch): 1; higher = weaker reporter binding. Particulars: FMN input: 0 or 200 uM; Eterna round: R93 (includes R88 designs). The essentials:
(§1)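 Designed RNA switches were transcribed on-chip from Illumina sequencing clusters and titrated with SNAP-549-labelled MS2 coat protein in twofold steps from 0.7 or 1.5 nM up to 3 µM. Each step lasted 0.8–1.5 h at first and 10–20 min by the end, in 100 mM Tris-HCl pH 7.5, 80 mM KCl and 4 mM MgCl2, without or with constant ligand. Apparent KD is the median, for each design, of fits to normalised cluster binding curves.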

The test system of data set [3] is MS2 coat protein. The experiment in a line: apparent KD of MS2 coat protein, switch OFF state (with FMN for OFF switches, without FMN for ON switches); designed switch direction (-1 OFF switch, 1 ON switch): 1; higher = weaker reporter binding. The following applies: FMN input: 0 or 200 uM; Eterna round: R93 (includes R88 designs). Put shortly: as §1

“AAUAAUCUUUAAGGAUAUCAGUGGCAAAGCCACUGAGAAGGUGAGGAUCACCCAUCUACGUGACCCUGGAAACAGGGUCACGAA [#SharedSequence - ExNG1-12] (puzzle (switch architecture): Exclusion NG 1)”: the “apparent KD of MS2 coat protein” value worked out at 84.6 nM in data set [1] (input ligand: FMN 200 uM) and 66.7 nM in data set [1] (input ligand: none).
Consider “ACACAUGAGGAUCACCCAUGUAGCUGGCGUCUGCGCCAGCCACAGGAUAUACGGUAACACAAACCGUAGAAGGGUGAUAAACAC [Inerre] (puzzle (switch architecture): Same State NG 3)”, for which the “apparent KD of MS2 coat protein” value worked out at 54.5 nM in data set [1] (input ligand: FMN 200 uM) and 113 nM in data set [1] (input ligand: none).
The like results for “ACACGUCGUGAGAAGGAGGAUCACCCUUUCGAAAGAAAUAGCCACCGUGAAAACGGUGGCAAAUCUUAGGAUAUCACGACGUGA [#SharedSequence - IExNG2: 5] (puzzle (switch architecture): Inverted Exclusion NG 2)” were, in that order, 189 nM and 189 nM.
On to “AGAAACUACGAGAAGGACAUGUGGUCCUUCGGGAAAAUGAGGAUCACCCAUGUAGGAUAUCGUAGUUUCAGGAUCGUGAGAUCA [salish99_ISLExNG1_022 #HINGE] (puzzle (switch architecture): Inverted Small Loop Exclusion NG 1)”, for which the “apparent KD of MS2 coat protein” value in data set [1] (input ligand: FMN 200 uM) worked out at 51.1 nM; in data set [1] (input ligand: none), 69.2 nM.
Taken in the same sequence, the figures for “AGAGCUGCUCAGAAGGAGGAUCACCCUUUCGAAAGAAAGACGGAGGCUGAAAAGCCUCCGAAAUUCUAGGAUAUGAGCAGCUCA [#SharedSequence - IExNG2: 1] (puzzle (switch architecture): Inverted Exclusion NG 2)” were 411 nM and 204 nM.
Taken in the same sequence, the figures for “AGGAGGAAUGUAGGAUAUAUAUAUAUAUAUAGACAAAGUGUAUAUAUAUAUAUAGAAGGACAUGAGGAUCACCCAUGUUUCCCU [#Lowering the energy 13] (puzzle (switch architecture): Small Loop Exclusion NG 1)” were 6.87 nM and 8.11 nM.
The like results for “AGGUAUACUUAGAAGGGCUCCAGCAAAGCUGGAGCAGGAUAUGAGGAUCACCCAUAUCACCUGACGGUCGAAACGACCGUCAGG [#SharedSequence - IExNG1: 8-1] (puzzle (switch architecture): Inverted Exclusion NG 1)” were, in that order, 26.8 nM and 13.2 nM.
For “AGGUAUACUUAGAAGGGCUCCAGCAAAGCUGGAGCAGGAUAUGAGGAUCACCCAUGUCACCUGACGGUCGAAACGACCGUCAGG [#SharedSequence - IExNG1: 9-1] (puzzle (switch architecture): Inverted Exclusion NG 1)”, the “apparent KD of MS2 coat protein” value worked out at 76.4 nM in data set [1] (input ligand: FMN 200 uM) and 22.8 nM in data set [1] (input ligand: none).
For the sequence “AGGUGAGCUCGAUGGCGACAUGAGGAUCACCCAUGUACGAUCAGAAGGGCUCGGGCAAGAAGUGGGCAGGAUAUGGUCGGUGCC [Xeadion] (puzzle (switch architecture): Inverted Exclusion NG 3)”, in data set [1] (input ligand: FMN 200 uM), the “apparent KD of MS2 coat protein” value was determined as 4.5 nM.
In the case of “CGCUAUGACAUGAGGAUCACCCAUGUAUACAUGGGAAUGACGUAGGAUAUGCAGAAGAUUAAAGUGCAGAAGGACGGCUUAGCG [JR #DistanceClose #Static #NP SSNG3 Sub064] (puzzle (switch architecture): Same State NG 3)”, the “apparent KD of MS2 coat protein” value in data set [1] (input ligand: FMN 200 uM) was found to be 1020 nM; in data set [1] (input ligand: none), 830 nM.
As for “GACUGCAGGAUAACAACCUGCAGUCACUUCUGAGGAUCACCCAGAAGGGCUGAGGUAAUACCUCAGCAGGAUAUGGAGUGAAAA [#SharedSequence IExNG# - 5] (puzzle (switch architecture): Inverted Exclusion NG 3)”, the “apparent KD of MS2 coat protein” value in data set [1] (input ligand: FMN 200 uM) came out at 141 nM; in data set [1] (input ligand: none), 64.3 nM.
Taken in the same sequence, the figures for “GCAGCUAAUGCAGGAUAUCAGCACGUGUAGUGCUGAGAAGGGCACAUGAGGAUACCCACUGUGAUCAAUUAAUAUUAAUGCUGC [salish99#hingeEx3_55-58_002] (puzzle (switch architecture): Exclusion NG 1)” were 18.4 nM and 50.2 nM.
For “GGAAUAAAUGCAGGAUAUACGUGGAAAGCCCUCAACAUGAGGAUCACCCAUGUAGAAGGGCAUCUCCCGACCGAAGCGGAUCUC [Laisraus] (puzzle (switch architecture): Small Loop Exclusion NG 1)”, in data set [1] (input ligand: FMN 200 uM), the “apparent KD of MS2 coat protein” value is 4.83 nM.
With “GGAGAUACAUGAGGAUCACCCAUGUAGGAUAUCGGGCCCAUAUCCGGCGAAAGCCGGAUAUGGGCCGAGAAGGGCGUACACACC [#LOL-6] (puzzle (switch architecture): Small Loop Exclusion NG 3)”, the “apparent KD of MS2 coat protein” value turned out to be 7.58 nM in data set [1] (input ligand: FMN 200 uM) and 8.68 nM in data set [1] (input ligand: none).
On to “GGCUGCAAUUAUGAGGAUAUGUUCGGAUGAACAUGAGGAUCACCCAUGUGGCGAUAGCUAUCUGUGCAGAAGGUGUAGUGGUAGC [Edlexete]”, for which the “apparent KD of MS2 coat protein” value is 38.8 nM in data set [2] and 130 nM in data set [3].
The like results for “GGGAGACAUGAGGAUCACCCAUGUAGAAGGAUGGGAGGAUAUACAAAGACGAGAGUCAGAGUAGAAGGCCUAGGAA [salish99-ss1-189-4KCAL]” were, in that order, 29 nM and 58.5 nM.
In the case of “GGGAGACAUGAGGAUCACCCAUGUGAGAAGAGGCGAGGAUAUCGAAAGAAAGAAGAGAAACGAGAAGGCGCGAGCC [salish99-SS1-064]”, the “apparent KD of MS2 coat protein” value stood at 94.2 nM in data set [2] and 66.4 nM in data set [3].
Taken in the same sequence, the figures for “GGGAGGAAGAGAGAGGAUAUCCAAAGGAAAACAUGAGGAUCACCCAUGUAAAAGGUAGGAAAUUGGGAGAAGGCUCAAGAGAACG [salish99-ss2-056]” were 25.5 nM and 28.9 nM.
As for “GGUACUCAAAGAGUACCAAUACGAACAUGAGGAUCACCCAUGUAGGAUAUGCUACUCAAAGAGUAGCAGAAGGACAUGUGUCUA [jl-ex3-3.01 #GC_VS_GU_SWITCHING] (puzzle (switch architecture): Exclusion NG 3)”, the “apparent KD of MS2 coat protein” value in data set [1] (input ligand: FMN 200 uM) was found to be 55.5 nM; in data set [1] (input ligand: none), 13.9 nM.
Taken in the same sequence, the figures for “GGUCGACUUCAAGGAUAUGGACUGCUUUGCAGUCCAGAAGGUGAGGAUCACCCACCUACGGUCAGGUUUCUGACCGAUCGACCU [#AddUracilToBrourdLoops 4 - Jieux - Exclusion NG1] (puzzle (switch architecture): Exclusion NG 1)” were 8.62 nM and 7.94 nM.
On to “GUCGGAAACGACAAGUCAGCUCGUGAGGAUAUACAUAAAUUAAAGAUCACAUGAGGAUCACCCAUGUAGAAGGCACGAGCUGAU [#StaticStemDeletion - ENG2/2-A2] (puzzle (switch architecture): Small Loop Exclusion NG 3)”, for which the “apparent KD of MS2 coat protein” value in data set [1] (input ligand: FMN 200 uM) was 455 nM; in data set [1] (input ligand: none), 195 nM.
The like results for “GUGCUUGUCGAAGGAUAUGGUUACAUGAGGAUCACCCAUGUUAUGCUUGGUUACUUGUUUAGUUUCCAGAAGGUCGAUUAGUUG [salish99_ExNG2_001 #Hinge] (puzzle (switch architecture): Exclusion NG 2)” were, in that order, 55.7 nM and 23 nM.
As to “GUGUAAAGAAUCGAGGAUAUCCAAAAAAGCACAUGAGGAUCACCCAUGUAAGAGAGAGAAUAAUGGGAGAAGGCGAGUUAUCGGU [JR_SS002_Sub1712]”, the “apparent KD of MS2 coat protein” value was 18.1 nM in data set [2] and 64.1 nM in data set [3].
For “UAGCAGUGCGGGUAGGAUAUGUAGGGUGGUACAUGAGGAUCACCCAUGUAUCCACCCUUCGACCGGCAGAAGGGCCUGUCACUGC [Edor]”, the “apparent KD of MS2 coat protein” value was 17.9 nM in data set [2] and 16.9 nM in data set [3].
Consider “UAUCCGGCAGUGUAGGAUAUGUUGUAGUCAACAUGAGGAUCACCCAUGUGGAUUAUAUAAGAUUCACAGAAGGGCACUGCAUUGC [Geiner]”, for which the “apparent KD of MS2 coat protein” value in data set [2] is 87.8 nM; in data set [3], 74.1 nM.
The like results for “UCGUCCUCGUGCUAGGAUAUCCAUCGUAAAACAUGAGGAUCACCCAUGUAGAAAUGCGCCUACGAGGAGAAGGAGCGAUGUGGAU [Velemageer]” were, in that order, 14.9 nM and 19 nM.
For the sequence “UGGAAACAUGAGGAUCACCCAUGUAAAAGGUGGUUAGGAUAUGCAAAACGGAAAACGAAAGCAGAAGGGACAAAAA [Inspired by JR and Meechl]”, the “apparent KD of MS2 coat protein” value in data set [2] came to 130 nM; in data set [3] it was 320 nM.
Taken in the same sequence, the figures for “UGGAGACAUGAGGAUCACCCAUGUGAGAAGAGGCGAGGAUAUCGAAAAAAAAAAAAAAAACGAGAAGGCGCGAGAA [salish99-SS1-007]” were 28.9 nM and 56.3 nM.
With “UGUCCACAUGAGGAUCACCCAUGUCAGGAGGUGACAGGAUAUUGCGAAAAAAAAAAAAAGCAAGAAGGGUCUGAUU [SameState1-cac1]”, the entries for the “apparent KD of MS2 coat protein” value in data set [2] and in data set [3] were 36.4 nM and 98.4 nM, respectively.
Taken in the same sequence, the figures for “UUACAGCACAGGUAGGAUAUGUAGGGUGGUACAUGAGGAUCACCCAUGUAUCCACCCUUCGAAAGGCAGAAGGGCCUGUCGCCGC [Leanisqube]” were 13.1 nM and 15 nM.
